Assays:
human CTLA-4 (human) [1] = molecular target: human CTLA-4 (human) (UniProt P16410); assay: flow cytometry, CHO cells expressing CTLA4
PD-L1 (human) [2] = molecular target: PD-L1 (human) (UniProt Q9NZQ7); assay: flow cytometry, MFI on PD-L1 over MFI on CD28
CD28 (human) [3] = molecular target: CD28 (human) (UniProt P10747); assay: flow cytometry, Jurkat cells (CD28)
PD-L1 (human) [4] = molecular target: PD-L1 (human) (UniProt Q9NZQ7); assay: flow cytometry, CHO cells expressing PD-L1
CD28 (human) [5] = molecular target: CD28 (human) (UniProt P10747)
PD-L1 (human) [6] = molecular target: PD-L1 (human) (UniProt Q9NZQ7)
CD28 (human) [7] = molecular target: CD28 (human) (UniProt P10747); remark: listed apart in the source
PD-L1 (human) [8] = molecular target: PD-L1 (human) (UniProt Q9NZQ7); remark: listed apart in the source
CD28 (human) [9] = molecular target: CD28 (human) (UniProt P10747); assay: flow cytometry, Jurkat/IL2 reporter cells (CD28)
CD28 (human) [10] = molecular target: CD28 (human) (UniProt P10747); assay: flow cytometry, Jurkat/IL2 reporter cells (endogenous CD28)
human CTLA-4 (human) [11] = molecular target: human CTLA-4 (human) (UniProt P16410); assay: flow cytometry, CHO cells expressing huCTLA4
PD-L1 (human) [12] = molecular target: PD-L1 (human) (UniProt Q9NZQ7); assay: flow cytometry, CHO cells expressing huPD-L1
human CTLA-4 (human) [13] = molecular target: human CTLA-4 (human) (UniProt P16410); assay: flow cytometry, CHO cells expressing huCTLA-4
PD-L1 (human) [14] = molecular target: PD-L1 (human) (UniProt Q9NZQ7); assay: flow cytometry, CHO cells expressing huPD-L1; remark: listed apart in the source

PD-L1 (human), sequence (Q9NZQ7 19-290): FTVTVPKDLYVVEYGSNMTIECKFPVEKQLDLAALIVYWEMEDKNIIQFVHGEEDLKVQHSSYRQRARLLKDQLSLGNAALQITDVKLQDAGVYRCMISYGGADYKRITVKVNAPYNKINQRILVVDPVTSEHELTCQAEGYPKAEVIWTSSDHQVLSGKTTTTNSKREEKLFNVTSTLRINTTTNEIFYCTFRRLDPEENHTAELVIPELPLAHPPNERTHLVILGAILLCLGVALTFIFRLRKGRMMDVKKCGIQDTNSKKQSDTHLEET
human CTLA-4 (human), sequence (P16410 36-223): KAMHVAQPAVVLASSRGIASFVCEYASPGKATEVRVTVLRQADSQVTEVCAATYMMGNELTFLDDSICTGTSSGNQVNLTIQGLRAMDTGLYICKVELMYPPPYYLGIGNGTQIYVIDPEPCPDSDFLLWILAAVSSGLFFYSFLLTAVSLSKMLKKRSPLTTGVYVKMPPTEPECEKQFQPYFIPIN

Fold change to WT CD80 (human CTLA-4 (human) [1]) [fold]	MFI at 33.3 nM (human CTLA-4 (human) [1]) [MFI]	Ratio of PDL1:CD28 (PD-L1 (human) [2])	Fold change to WT CD80 (CD28 (human) [3]) [fold]	MFI at 33.3 nM (CD28 (human) [3]) [MFI]	Fold change to WT CD80 (PD-L1 (human) [4]) [fold]	MFI at 33.3 nM (PD-L1 (human) [4]) [MFI]	IL-2 release, primary T cells + K562/OKT3/PD-L1, 100 nM (CD28 (human) [5])	IL-2 release, primary T cells + K562/OKT3/PD-L1, 100 nM (PD-L1 (human) [6])	Jurkat/IL2 reporter RLU at 50 nM, CHO/OKT3 aAPC without PD-L1 (CD28 (human) [7]) [RLU]	Substance	also measured
12.6	22000	77.9	0.5	14.2	21.5	1110	–	–	–	CD80 T13R/Q33R/E35D/M38I/M47L/V68M/L85M IgV-Fc (Fc fusion)	–
–	–	–	–	–	–	–	102	102	606	CD80 E23G/A26S/E35D/T62N/A71D/L72V/L85M IgV-Fc (inert) (Fc fusion)	Jurkat/IL2 reporter RLU at 50 nM, CHO/OKT3/PD-L1 aAPC (CD28 (human) [7]): 695 RLU; Jurkat/IL2 reporter RLU at 50 nM, CHO/OKT3/PD-L1 aAPC (PD-L1 (human) [8]): 695 RLU
–	–	–	–	–	–	–	59	59	440	CD80 E35G/K54E/A71D/L72P IgV-Fc (inert) (Fc fusion)	Jurkat/IL2 reporter RLU at 50 nM, CHO/OKT3/PD-L1 aAPC (CD28 (human) [7]): 476 RLU; Jurkat/IL2 reporter RLU at 50 nM, CHO/OKT3/PD-L1 aAPC (PD-L1 (human) [8]): 476 RLU
8.8	15500	1270	0.5	15	362	18600	–	–	–	CD80 E24D/E35D/M47L/V68M/E95V/L97Q IgV-Fc (Fc fusion)	–

Further lines, the substance ahead of its results:

Substance	Fold change to WT CD80 (human CTLA-4 (human) [1]) [fold]	MFI at 33.3 nM (human CTLA-4 (human) [1]) [MFI]	Ratio of PDL1:CD28 (PD-L1 (human) [2])	Fold change to WT CD80 (CD28 (human) [3]) [fold]	MFI at 33.3 nM (CD28 (human) [3]) [MFI]	Fold change to WT CD80 (PD-L1 (human) [4]) [fold]	MFI at 33.3 nM (PD-L1 (human) [4]) [MFI]	IL-2 release, primary T cells + K562/OKT3/PD-L1, 100 nM (CD28 (human) [5])	IL-2 release, primary T cells + K562/OKT3/PD-L1, 100 nM (PD-L1 (human) [6])	Jurkat/IL2 reporter RLU at 50 nM, CHO/OKT3 aAPC without PD-L1 (CD28 (human) [7]) [RLU]	also measured
CD80 E35D/M47I IgV-Fc (inert) (Fc fusion)	–	–	–	–	–	–	–	8310	8310	894	Jurkat/IL2 reporter RLU at 50 nM, CHO/OKT3/PD-L1 aAPC (CD28 (human) [7]): 3780 RLU; Jurkat/IL2 reporter RLU at 50 nM, CHO/OKT3/PD-L1 aAPC (PD-L1 (human) [8]): 3780 RLU
CD80 H18Y/E35D/V68M/L85M/R94Q IgV-Fc (Fc fusion)	11.3	19800	1040	0.4	14	280	14400	–	–	–	–
CD80 E35D/M47L IgV-Fc (inert) (Fc fusion)	–	–	–	–	–	–	–	7530	7530	817	–
CD80 H18Y/E35D/M47L/V68M/E95V/L97Q IgV-Fc (Fc fusion)	11.7	20500	1020	0.5	14.5	286	14800	–	–	–	–
variant CD80 IgV-Fc E35D/M47L/L85Q (Fc fusion)	–	–	–	–	–	–	–	–	–	–	MFI at 33.3 nM (CD28 (human) [9]): 46.3 MFI; MFI at 33.3 nM (CD28 (human) [10]): 646 MFI; MFI at 33.3 nM (human CTLA-4 (human) [11]): 336000 MFI; MFI at 33.3 nM (PD-L1 (human) [12]): 33200 MFI; MFI at 33.3 nM (human CTLA-4 (human) [13]): 12900 MFI; MFI at 33.3 nM (PD-L1 (human) [14]): 6100 MFI
variant CD80 IgV-Fc Q27H/E35D/M47L/L85Q/R94Q/E95K (Fc fusion)	–	–	–	–	–	–	–	–	–	–	MFI at 33.3 nM (CD28 (human) [10]): 282 MFI; MFI at 33.3 nM (PD-L1 (human) [12]): 36100 MFI
variant CD80 IgV-Fc E35D/M47V/T62A/A71G/V83A/Y87H/L97M (Fc fusion)	–	–	–	–	–	–	–	–	–	–	MFI at 33.3 nM (CD28 (human) [10]): 305 MFI; MFI at 33.3 nM (human CTLA-4 (human) [11]): 18100 MFI; MFI at 33.3 nM (PD-L1 (human) [12]): 77500 MFI
CD80 H18Y/V22D/E35D/M47V/N48K/V68M IgV-Fc (Fc fusion)	9	15800	50.1	8.2	257	250	12900	–	–	–	–
variant CD80 IgV-Fc Q33L/E35D/M47V (Fc fusion)	–	–	–	–	–	–	–	–	–	–	MFI at 33.3 nM (human CTLA-4 (human) [11]): 47600 MFI; MFI at 33.3 nM (PD-L1 (human) [12]): 47900 MFI
CD80 A26E/E35D/M47L/L85Q IgV-Fc (inert) (Fc fusion)	–	–	–	–	–	–	–	1460	1460	432	Jurkat/IL2 reporter RLU at 50 nM, CHO/OKT3/PD-L1 aAPC (CD28 (human) [7]): 2000 RLU; Jurkat/IL2 reporter RLU at 50 nM, CHO/OKT3/PD-L1 aAPC (PD-L1 (human) [8]): 2000 RLU
CD80 E35D/M43I/M47L/V68M IgV-Fc (Fc fusion)	9.3	16200	11.1	48.3	1520	328	16900	–	–	–	–
